Assay results: US20250057968A1, “ANTI-DLL3 ANTIBODY AND PHARMACEUTICAL USE THEREOF, AND ANTIBODY-DRUG CONJUGATE CONTAINING ANTI-DLL3 ANTIBODY” (Jiangsu Hengrui Pharmaceuticals Co., Ltd., priority 2021, published 2025)

Tests used:
[1] = target: T1, hDLL3(ECD)-strep twin, biotinylated (human, UniProt Q9NYJ7 27-492, biotinylated (site not stated)); experiment: ELISA, biotinylated antigen on streptavidin plate
T1 construct: also called Biotinylated DLL3 antigen; Biotinylated DLL3-Strep
Experimental: Streptavidin (abcam, ab136200, 1 μg/mL) was plated at 100 μL/well, and the plate was incubated overnight at 4° C. The plate was washed 3 times with 250 μL of PBST solution (PBS containing 0.1% Tween 20) per well. The plate was blocked with 250 μL of 5% milk per well at 37° C. for 2 h. The plate was washed 3 times with 250 μL of PBST solution per well. Biotinylated DLL3 antigen (1 μg/mL) (SEQ ID NO: 9) was added, and the plate was incubated at 37° C. for 1 h. The plate was washed 3 times with 250 μL of PBST solution per well. […] The plate was washed 6 times with 250 μL of PBST solution per well. […] The plate was washed 6 times with 250 μL of PBST solution per well. TMB (KPL, 5120-0077) substrate solution was added at 100 μL/well, and color development was allowed at room temperature for 5-10 min. 1 M H₂SO₄ was added at 100 μL/well to stop the color development, and microplate reader (Molecular Devices, VERSA max) readings at 450 nm were taken.

[2] = target: T2, human DLL3 (ACRO, DLL3-H52H4) (human, UniProt Q9NYJ7 27-479); experiment: SPR (Biacore 8K), antibody captured on Protein A chip, 1:1 fit
T2 construct: bought antigen of the Biacore assay; construct not described
T2 sequence (looked up): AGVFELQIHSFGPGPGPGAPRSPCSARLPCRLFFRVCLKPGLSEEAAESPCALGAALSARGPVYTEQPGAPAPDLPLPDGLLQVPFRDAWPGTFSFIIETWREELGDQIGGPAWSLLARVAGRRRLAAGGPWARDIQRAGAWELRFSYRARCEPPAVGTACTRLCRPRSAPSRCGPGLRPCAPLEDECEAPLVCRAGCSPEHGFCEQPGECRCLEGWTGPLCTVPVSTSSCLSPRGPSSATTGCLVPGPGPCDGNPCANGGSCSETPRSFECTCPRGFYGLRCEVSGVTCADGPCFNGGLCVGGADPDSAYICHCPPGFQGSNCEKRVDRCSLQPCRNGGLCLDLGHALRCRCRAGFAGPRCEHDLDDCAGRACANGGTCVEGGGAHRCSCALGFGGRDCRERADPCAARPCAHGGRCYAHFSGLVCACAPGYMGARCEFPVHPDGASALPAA
Source text: (§1) Test antibodies were affinity-captured with a Protein A biosensor chip (Cat. #29127556, Cytiva) for 18 seconds, and then the antigens human DLL3 (ACRO, DLL3-H52H4), cynomolgus monkey DLL3 (KACTUS, DLL-RM103), and mouse DLL3 (KACTUS, DLL-MM103) were allowed to flow over the surface of the chip for 180 seconds, followed by 600 seconds of dissociation. Reaction signals were detected in real time using a Biacore 8K (Cytiva) instrument to obtain association and dissociation curves. After the dissociation in each experimental cycle, the biosensor chip was washed and regenerated with a 10 mM glycine-hydrochloric acid solution (pH 1.5) (Cat. #BR-1003-54, Cytiva). A 1:1 model was fit to the data. The results are shown in Table 12-1, Table 12-2, and Table 12-3.

[3] = target: T3, mouse DLL3 (KACTUS, DLL-MM103) (mouse, UniProt O88516 33-490, limits assumed); experiment: SPR (Biacore 8K), antibody captured on Protein A chip
T3 construct: bought antigen of the Biacore assay; construct not described
T3 sequence (looked up): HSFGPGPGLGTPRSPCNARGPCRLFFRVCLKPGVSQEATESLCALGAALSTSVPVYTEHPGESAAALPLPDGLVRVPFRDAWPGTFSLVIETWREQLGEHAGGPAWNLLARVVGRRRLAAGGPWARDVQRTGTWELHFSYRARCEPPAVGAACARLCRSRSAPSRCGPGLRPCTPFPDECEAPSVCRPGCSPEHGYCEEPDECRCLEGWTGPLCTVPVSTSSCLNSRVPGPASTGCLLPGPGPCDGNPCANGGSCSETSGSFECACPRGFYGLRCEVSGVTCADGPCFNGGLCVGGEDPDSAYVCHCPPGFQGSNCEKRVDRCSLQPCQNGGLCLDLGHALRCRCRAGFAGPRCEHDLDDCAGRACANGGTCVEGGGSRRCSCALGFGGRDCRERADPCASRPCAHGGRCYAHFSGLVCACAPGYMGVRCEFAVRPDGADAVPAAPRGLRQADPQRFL
Source text: as §1

B1: Hu100 (antibody, human IgG1, kappa, V domains shown)
VH: EVQLVESGGGLVKPGGSLRLSCAASGFTFSDSGMHWIRQAPGKGLEWVSYISSGSSTIHYADTVKGRFTISRDNAKNSLYLQMNSLRAEDTAVYYCASPLYYYGRSYNAVAYWGQGTTVTVSS
VL: DIQMTQSPSSLSASVGDRVTITCHASQNINVWLSWYQQKPGKVPKLLIYKASDLHTGVPSRFSGSGSGTDFTLTISSLQPEDVATYYCQQGQSYPLTFGGGTKVEIKR
notes: also called hAb100L1H1
EC50 [1]: 0.05 nM
Kd [2]: 0.436 nM
koff [2]: 0.000374 s⁻¹
kon [2]: 858000 M⁻¹ s⁻¹
binding result [3]: no binding

B2: Hu6 (antibody, human IgG1, kappa, V domains shown)
VH: EVQLVQSGSELKKPGASVKVSCKASGYTFTDYYMNWVRQAPGQGLEWMGIINPYSGVTIYNHKFKGRFALSVDKSSNTAYLQISSLKAEDTAVYYCARQDSLLDYAMDYWGQGTTVTVSS
VL: DIQMTQSPSSLSASVGDRVTITCHASQGISGNMGWLQQKPGKAPKGLIYHGANLEDGVPSRFSGSGSGADYTLTISSLQPEDFADYYCVQYAQFPYTFGGGTKVEIKR
notes: also called hAb6L4H12
EC50 [1]: 0.04 nM
